The values below come from US20260207767A1.

Assay [1] concerns the target human PD-1 expressed on cells (human) (UniProt Q15116). The experiment in a line: flow cytometry, CHO-S hPD-1. In general terms: In flow cytometry, cells or beads pass a laser one at a time.
The target in assay [2] is recombinant hPD-1 (construct not stated) (human) (UniProt Q15116). The experiment in a line: ELISA. A general note: An ELISA detects its analyte on a solid surface through an enzyme-linked reagent.
Assay [3] addresses recombinant cynoPD-1 (construct not stated) (cynomolgus monkey) (UniProt B0LAJ3). Description: ELISA.
The target of assay [4] is cynomolgus PD-1 expressed on cells (cynomolgus monkey) (UniProt B0LAJ3). The experiment in a line: flow cytometry, CHO-S Cyno-PD-1.
cynomolgus PD-1 expressed on cells (cynomolgus monkey), sequence (B0LAJ3 entry or part of it limits assumed): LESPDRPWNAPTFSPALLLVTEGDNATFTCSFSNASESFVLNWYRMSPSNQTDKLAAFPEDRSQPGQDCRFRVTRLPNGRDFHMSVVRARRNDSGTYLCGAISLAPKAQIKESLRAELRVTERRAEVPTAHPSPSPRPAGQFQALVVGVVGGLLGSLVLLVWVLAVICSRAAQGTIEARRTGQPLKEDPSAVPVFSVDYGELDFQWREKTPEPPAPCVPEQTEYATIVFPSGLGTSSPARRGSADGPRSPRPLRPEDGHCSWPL

human PD-1 expressed on cells (human), sequence (Q15116 25-288): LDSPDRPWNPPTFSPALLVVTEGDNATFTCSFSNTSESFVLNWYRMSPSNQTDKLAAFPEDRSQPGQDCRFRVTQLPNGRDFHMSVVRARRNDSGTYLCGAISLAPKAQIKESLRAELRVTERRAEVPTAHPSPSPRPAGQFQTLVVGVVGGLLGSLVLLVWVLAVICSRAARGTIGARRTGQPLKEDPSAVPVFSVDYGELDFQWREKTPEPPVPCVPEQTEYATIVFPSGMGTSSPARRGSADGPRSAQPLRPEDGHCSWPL
recombinant hPD-1 (construct not stated) (human), sequence (Q15116 25-167 limits assumed): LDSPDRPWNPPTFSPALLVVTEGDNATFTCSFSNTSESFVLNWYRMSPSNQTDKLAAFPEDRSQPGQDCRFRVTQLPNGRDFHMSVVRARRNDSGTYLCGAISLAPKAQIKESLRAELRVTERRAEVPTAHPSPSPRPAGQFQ
recombinant cynoPD-1 (construct not stated) (cynomolgus monkey), sequence (B0LAJ3 entry or part of it limits assumed): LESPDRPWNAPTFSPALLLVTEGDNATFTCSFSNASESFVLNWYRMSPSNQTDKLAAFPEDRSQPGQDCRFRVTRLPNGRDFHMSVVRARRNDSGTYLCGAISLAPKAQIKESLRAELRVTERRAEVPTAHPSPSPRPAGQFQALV

In the case of NC.hIgG1 (antibody), the Max MFI in assay [1] is 184 MFI; in assay [4], 206 MFI. In addition, the values for the Max OD in assay [2] and in assay [3] were 0.05 OD and 0.07 OD, respectively.
